Data taken from US20170112760.

Molecular target: T1, RALA peptide
T1 chain: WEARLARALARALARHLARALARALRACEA

B1: proteinase K (protein)
chain: AAQTNAPWGLARISSTSPGTSTYYYDESAGQGSCVYVIDTGIEASHPEFEGRAQMVKTYYYSSRDGNGHGTHCAGTVGSRTYGVAKKTQLFGVKVLDDNGSGQYSTIIAGMDFVASDKNNRNCPKGVVASLSLGGGYSSSVNSAAARLQSSGVMVAVAAGNNNADARNYSPASEPSVCTVGASDRYDRRSSFSNYGSVLDIFGPGTSILSTWIGGSTRSISGTSMATPHVAGLAAYLMTLGKTTAASACRYIADTANKGDLSNIPFGTVNLLAYNNYQA
- release of DNA from RALA/pEGFP-N1 nanoparticles on agarose gel after 30 min with 20% proteinase K (0.1 mg/mL): the RALA peptide is cleaved by proteinase K thus releasing the DNA into solution
